In patent US20230201322A1 one finds HLA-A2 labelling as % of reference peptide HIV pol 589-597, Conc. inducing 20% of HLA-A2 expression and Relative affinity data, which are given here for two molecules.

What all share (conditions): remark: other sources report otherwise
Test [1] concerns the target T1, HLA-A*0201 molecule expressed on the human tumoral cell T2 (human). Description: T2 cell HLA-A2 FACS (BB7.2-PE), peptide 1 µM.
Test [2] concerns the target T1, HLA-A*0201 molecule expressed on the …. Description: T2 cell HLA-A2 FACS (BB7.2-PE), peptide 10 µM.
For test [3] the target is unchanged. The experiment in a line: T2 cell HLA-A2 FACS (BB7.2-PE), peptide 0.1 µM.
For test [4] the target is unchanged. The experiment in a line: T2 cell HLA-A2 FACS (BB7.2-PE), peptide 100 µM.
The target is the same in test [5]. Description: T2 cell HLA-A2 FACS (BB7.2-PE), peptide titration.
Test [6] has the same target. Description: T2 cell HLA-A2 FACS (BB7.2-PE); ratio of 20% concentrations against HIV pol 589-597.

As for VLLGVVFGV [antigenic peptide ERBB2-3B2 (…)], the HLA-A2 labelling as % of reference peptide HIV pol 589-597 at 100 µM in test [1] is 1.51%; in test [2], 57%; in test [3], -14.6%; in test [4], 336%. In addition, in test [5], the Conc. inducing 20% of HLA-A2 expression was determined as 6.9 µM. In test [6], the Relative affinity was 0.19.

On to VVLGVVFGI [reference human peptide derived from ERBB2, ERBB2-3H (…)], for which the HLA-A2 labelling as % of reference peptide HIV pol 589-597 at 100 µM in test [1] was -24%; in test [2], 11.9%; in test [3], -12.6%; in test [4], 196%. The Conc. inducing 20% of HLA-A2 expression in test [5] was determined as 16.3 µM. Moreover, the Relative affinity in test [6] is 0.45.
